Where two headings read alike, the source gives them in different places. *1 amine or outer side, *2 acyl side, *3 side chain or, on linkers, in order; H or OH if unused. Bridges are numbered along the chain shown (N, C = ends). [ ]: non-standard residue; d: D form. The star is where a group is joined. C20 diacid = O=C(O)CCCCCCCCCCCCCCCCCCC(=O)*; γGlu = O=C(O)[C@H](CCC(=O)[*:2])N[*:1]; Hyp = O=C(O)[C@@H]1C[C@@H](O)CN1; NMeI = CC[C@H](C)[C@H](NC)C(=O)O; Aad = N[C@@H](CCCC(=O)O)C(=O)O; Sar = CNCC(=O)O
T1: human amylin receptor 3 (hAMYR3), hCTR2 co-expressed with human receptor activity modifying protein 3 (hRAMP3) (human, UniProt P30988 25-474; O60896 24-148)
T1 sequence (looked up) 1: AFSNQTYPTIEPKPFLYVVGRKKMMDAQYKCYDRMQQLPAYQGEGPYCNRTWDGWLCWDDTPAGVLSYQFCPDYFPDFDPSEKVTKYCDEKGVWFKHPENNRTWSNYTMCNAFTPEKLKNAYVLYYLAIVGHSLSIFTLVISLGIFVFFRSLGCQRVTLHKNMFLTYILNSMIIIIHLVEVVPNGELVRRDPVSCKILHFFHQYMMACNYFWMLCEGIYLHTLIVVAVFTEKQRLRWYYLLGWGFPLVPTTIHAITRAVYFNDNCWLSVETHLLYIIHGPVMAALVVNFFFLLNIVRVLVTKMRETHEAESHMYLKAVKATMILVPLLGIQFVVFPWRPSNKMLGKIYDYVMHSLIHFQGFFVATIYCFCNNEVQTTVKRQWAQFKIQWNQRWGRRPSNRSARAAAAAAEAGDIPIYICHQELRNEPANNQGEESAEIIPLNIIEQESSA
T1 sequence (looked up) 2: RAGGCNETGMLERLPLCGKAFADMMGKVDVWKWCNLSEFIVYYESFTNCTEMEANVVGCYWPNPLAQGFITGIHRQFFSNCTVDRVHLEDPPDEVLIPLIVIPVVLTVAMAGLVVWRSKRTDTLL


Assays:
[1] = target: T1, human amylin receptor 3 (hAMYR3), hCTR2 …; assay: cell-based or functional assay
[2] = target: T1, human amylin receptor 3 (hAMYR3), hCTR2 …; assay: cell-based or functional assay; remark: listed apart in the source

Row | Binder | hAMYR3 EC50 (nM); cAMP induction [1] | hAMYR3 EC50 (nM); cAMP induction [2]
1 | {C20 diacid}-[γGlu]RCGTATCATERLA[Aad]FLQRSSF[Sar]A[NMeI]LSSTEVGSNT[Hyp]-NH2 (disulfide 3-8; SMILES CC[C@H](C)[C@@H](C(=O)N[C@@H](CC(C)C)C(=O)N[C@@H](CO)C(=O)N[C@@H](CO)C(=O)N[C@H](C(=O)N[C@@H](CCC(=O)O)C(=O)N[C@H](C(=O)NCC(=O)N[C@@H](CO)C(=O)N[C@@H](CC(N)=O)C(=O)N[C@H](C(=O)N1C[C@H](O)C[C@H]1C(N)=O)[C@@H](C)O)C(C)C)[C@@H](C)O)N(C)C(=O)[C@H](C)NC(=O)CN(C)C(=O)[C@H](Cc1ccccc1)NC(=O)[C@H](CO)NC(=O)[C@H](CO)NC(=O)[C@H](CCCNC(=N)N)NC(=O)[C@H](CCC(N)=O)NC(=O)[C@H](CC(C)C)NC(=O)[C@H](Cc1ccccc1)NC(=O)[C@H](CCCC(=O)O)NC(=O)[C@H](C)NC(=O)[C@H](CC(C)C)NC(=O)[C@H](CCCNC(=N)N)NC(=O)[C@H](CCC(=O)O)NC(=O)[C@@H](NC(=O)[C@H](C)NC(=O)[C@@H]1CSSC[C@H](NC(=O)[C@H](CCCNC(=N)N)NC(=O)CC[C@H](NC(=O)CCCCCCCCCCCCCCCCCCC(=O)O)C(=O)O)C(=O)NCC(=O)N[C@@H]([C@@H](C)O)C(=O)N[C@@H](C)C(=O)N[C@@H]([C@@H](C)O)C(=O)N1)[C@@H](C)O) [[19CD]-isoGlu-R-C( )-GTAT-C( )-ATERLA-Aad-FLQRSSF-Gly(Me)-A-Ile(Me)-LSSTEVGSNT-Hyp-NH2 (Compd. 55)] | 0.08 nM | 0.08 nM
2 | {C20 diacid}-[γGlu]RCQTATCATDRLA[Aad]FLQRSSF[Sar]A[NMeI]LSSTEVGSNT[Hyp]-NH2 (disulfide 3-8; SMILES CC[C@H](C)[C@@H](C(=O)N[C@@H](CC(C)C)C(=O)N[C@@H](CO)C(=O)N[C@@H](CO)C(=O)N[C@H](C(=O)N[C@@H](CCC(=O)O)C(=O)N[C@H](C(=O)NCC(=O)N[C@@H](CO)C(=O)N[C@@H](CC(N)=O)C(=O)N[C@H](C(=O)N1C[C@H](O)C[C@H]1C(N)=O)[C@@H](C)O)C(C)C)[C@@H](C)O)N(C)C(=O)[C@H](C)NC(=O)CN(C)C(=O)[C@H](Cc1ccccc1)NC(=O)[C@H](CO)NC(=O)[C@H](CO)NC(=O)[C@H](CCCNC(=N)N)NC(=O)[C@H](CCC(N)=O)NC(=O)[C@H](CC(C)C)NC(=O)[C@H](Cc1ccccc1)NC(=O)[C@H](CCCC(=O)O)NC(=O)[C@H](C)NC(=O)[C@H](CC(C)C)NC(=O)[C@H](CCCNC(=N)N)NC(=O)[C@H](CC(=O)O)NC(=O)[C@@H](NC(=O)[C@H](C)NC(=O)[C@@H]1CSSC[C@H](NC(=O)[C@H](CCCNC(=N)N)NC(=O)CC[C@H](NC(=O)CCCCCCCCCCCCCCCCCCC(=O)O)C(=O)O)C(=O)N[C@@H](CCC(N)=O)C(=O)N[C@@H]([C@@H](C)O)C(=O)N[C@@H](C)C(=O)N[C@@H]([C@@H](C)O)C(=O)N1)[C@@H](C)O) [[19CD]-isoGlu-R-C( )-QTAT-C( )-ATDRLA-Aad-FLQRSSF-Gly(Me)-A-Ile(Me)-LSSTEVGSNT-Hyp-NH2 (Compd. 89)] | 0.2 nM | 0.2 nM

Second part, the binder after the results:

Row | hAMYR3 EC50 (nM); cAMP induction [1] | hAMYR3 EC50 (nM); cAMP induction [2] | Binder
3 | 0.59 nM |  | {C20 diacid-γGlu}-RCQTATCATERLAHFLQRSSNNF[Sar]A[NMeI]LSSTEVGSNT[Hyp]-NH2 (disulfide 2-7; SMILES CC[C@H](C)[C@@H](C(=O)N[C@@H](CC(C)C)C(=O)N[C@@H](CO)C(=O)N[C@@H](CO)C(=O)N[C@H](C(=O)N[C@@H](CCC(=O)O)C(=O)N[C@H](C(=O)NCC(=O)N[C@@H](CO)C(=O)N[C@@H](CC(N)=O)C(=O)N[C@H](C(=O)N1C[C@H](O)C[C@H]1C(N)=O)[C@@H](C)O)C(C)C)[C@@H](C)O)N(C)C(=O)[C@H](C)NC(=O)CN(C)C(=O)[C@H](Cc1ccccc1)NC(=O)[C@H](CC(N)=O)NC(=O)[C@H](CC(N)=O)NC(=O)[C@H](CO)NC(=O)[C@H](CO)NC(=O)[C@H](CCCNC(=N)N)NC(=O)[C@H](CCC(N)=O)NC(=O)[C@H](CC(C)C)NC(=O)[C@H](Cc1ccccc1)NC(=O)[C@H](Cc1c[nH]cn1)NC(=O)[C@H](C)NC(=O)[C@H](CC(C)C)NC(=O)[C@H](CCCNC(=N)N)NC(=O)[C@H](CCC(=O)O)NC(=O)[C@@H](NC(=O)[C@H](C)NC(=O)[C@@H]1CSSC[C@H](NC(=O)[C@H](CCCNC(=N)N)NC(=O)CC[C@H](NC(=O)CCCCCCCCCCCCCCCCCCC(=O)O)C(=O)O)C(=O)N[C@@H](CCC(N)=O)C(=O)N[C@@H]([C@@H](C)O)C(=O)N[C@@H](C)C(=O)N[C@@H]([C@@H](C)O)C(=O)N1)[C@@H](C)O) [[19CD]-isoGlu-R-C( )-QTAT-C( )-ATERLAHFLQRSSNNF-Gly(Me)-A-Ile(Me)-LSSTEVGSNT-Hyp-NH2 (Compd. 99)]
4 | 0.11 nM | 0.11 nM | {C20 diacid-γGlu}-RCQTATCATERLAHFLQRSSF[Sar]A[NMeI]LSSTEVGSNT[Hyp]-NH2 (disulfide 2-7; SMILES CC[C@H](C)[C@@H](C(=O)N[C@@H](CC(C)C)C(=O)N[C@@H](CO)C(=O)N[C@@H](CO)C(=O)N[C@H](C(=O)N[C@@H](CCC(=O)O)C(=O)N[C@H](C(=O)NCC(=O)N[C@@H](CO)C(=O)N[C@@H](CC(N)=O)C(=O)N[C@H](C(=O)N1C[C@H](O)C[C@H]1C(N)=O)[C@@H](C)O)C(C)C)[C@@H](C)O)N(C)C(=O)[C@H](C)NC(=O)CN(C)C(=O)[C@H](Cc1ccccc1)NC(=O)[C@H](CO)NC(=O)[C@H](CO)NC(=O)[C@H](CCCNC(=N)N)NC(=O)[C@H](CCC(N)=O)NC(=O)[C@H](CC(C)C)NC(=O)[C@H](Cc1ccccc1)NC(=O)[C@H](Cc1c[nH]cn1)NC(=O)[C@H](C)NC(=O)[C@H](CC(C)C)NC(=O)[C@H](CCCNC(=N)N)NC(=O)[C@H](CCC(=O)O)NC(=O)[C@@H](NC(=O)[C@H](C)NC(=O)[C@@H]1CSSC[C@H](NC(=O)[C@H](CCCNC(=N)N)NC(=O)CC[C@H](NC(=O)CCCCCCCCCCCCCCCCCCC(=O)O)C(=O)O)C(=O)N[C@@H](CCC(N)=O)C(=O)N[C@@H]([C@@H](C)O)C(=O)N[C@@H](C)C(=O)N[C@@H]([C@@H](C)O)C(=O)N1)[C@@H](C)O) [[19CD]-isoGlu-R-C( )-QTAT-C( )-ATERLAHFLQRSSF-Gly(Me)-A-Ile(Me)-LSSTEVGSNT-Hyp-NH2 (Compd. 57)]
5 | 0.15 nM | 0.15 nM | {C20 diacid-γGlu}-RCNTATCATQRLAEFLHHSSNNFGPILPPTNVGSNTP-NH2 (disulfide 2-7; SMILES CC[C@H](C)[C@H](NC(=O)[C@@H]1CCCN1C(=O)CNC(=O)[C@H](Cc1ccccc1)NC(=O)[C@H](CC(N)=O)NC(=O)[C@H](CC(N)=O)NC(=O)[C@H](CO)NC(=O)[C@H](CO)NC(=O)[C@H](Cc1c[nH]cn1)NC(=O)[C@H](Cc1c[nH]cn1)NC(=O)[C@H](CC(C)C)NC(=O)[C@H](Cc1ccccc1)NC(=O)[C@H](CCC(=O)O)NC(=O)[C@H](C)NC(=O)[C@H](CC(C)C)NC(=O)[C@H](CCCNC(=N)N)NC(=O)[C@H](CCC(N)=O)NC(=O)[C@@H](NC(=O)[C@H](C)NC(=O)[C@@H]1CSSC[C@H](NC(=O)[C@H](CCCNC(=N)N)NC(=O)CC[C@H](NC(=O)CCCCCCCCCCCCCCCCCCC(=O)O)C(=O)O)C(=O)N[C@@H](CC(N)=O)C(=O)N[C@@H]([C@@H](C)O)C(=O)N[C@@H](C)C(=O)N[C@@H]([C@@H](C)O)C(=O)N1)[C@@H](C)O)C(=O)N[C@@H](CC(C)C)C(=O)N1CCC[C@H]1C(=O)N1CCC[C@H]1C(=O)N[C@H](C(=O)N[C@@H](CC(N)=O)C(=O)N[C@H](C(=O)NCC(=O)N[C@@H](CO)C(=O)N[C@@H](CC(N)=O)C(=O)N[C@H](C(=O)N1CCC[C@H]1C(N)=O)[C@@H](C)O)C(C)C)[C@@H](C)O)

— patent US20160272693A1 (ZEALAND PHARMA A S, published 2016)
